Experimental data as given in US20180202002.

Target: T1, N-terminal tagged Cyclin D1 (FLAG-HA-Cyclin D1, tag at the N-terminus), P25322
T1 chain: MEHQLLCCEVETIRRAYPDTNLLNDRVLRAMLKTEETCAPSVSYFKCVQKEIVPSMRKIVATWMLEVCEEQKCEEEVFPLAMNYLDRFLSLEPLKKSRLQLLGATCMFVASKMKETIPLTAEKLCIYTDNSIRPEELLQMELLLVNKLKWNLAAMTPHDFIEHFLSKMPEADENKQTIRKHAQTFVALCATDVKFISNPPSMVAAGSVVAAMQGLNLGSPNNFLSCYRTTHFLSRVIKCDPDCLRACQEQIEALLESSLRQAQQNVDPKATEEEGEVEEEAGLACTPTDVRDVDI

B1: caspase 3 (protein)
chain: MENNKTSVDSKSINNFEVKTIHGSKSVDSGIYLDSSYKMDYPEMGICIIINNKNFHKSTGMSSRSGTDVDAANLRETFMGLKYQVRNKNDLTREDILELMDSVSKEDHSKRSSFVCVILSHGDEGVIYGTNGPVELKKLTSFFRGDYCRSLTGKPKLFIIQACRGTELDCGIETDSGTDEEMACQKIPVEADFLYAYSTAPGYYSWRNSKDGSWFIQSLCSMLKLYAHKLEFMHILTRVNRKVATEFESFSLDSTFHAKKQIPCIVSMLTKELYFYH
- levels of cleaved PARP (Western blot) after treatment with 5-FU: The levels of cleaved PARP increase in RAS or ErbB2 cancer cells after treatment with 5-FU, although limited by the Cyclin D1
